The source of these data is patent US20250090677A1 (MULTITUDE THERAPEUTICS, published 2025).

Experiment [1] deals with T1, mouse CDH6-ECD-His (mouse, UniProt P97326 54-615).
T1 construct: extracellular domain; Bought protein; not shown: His tag
T1 sequence (looked up): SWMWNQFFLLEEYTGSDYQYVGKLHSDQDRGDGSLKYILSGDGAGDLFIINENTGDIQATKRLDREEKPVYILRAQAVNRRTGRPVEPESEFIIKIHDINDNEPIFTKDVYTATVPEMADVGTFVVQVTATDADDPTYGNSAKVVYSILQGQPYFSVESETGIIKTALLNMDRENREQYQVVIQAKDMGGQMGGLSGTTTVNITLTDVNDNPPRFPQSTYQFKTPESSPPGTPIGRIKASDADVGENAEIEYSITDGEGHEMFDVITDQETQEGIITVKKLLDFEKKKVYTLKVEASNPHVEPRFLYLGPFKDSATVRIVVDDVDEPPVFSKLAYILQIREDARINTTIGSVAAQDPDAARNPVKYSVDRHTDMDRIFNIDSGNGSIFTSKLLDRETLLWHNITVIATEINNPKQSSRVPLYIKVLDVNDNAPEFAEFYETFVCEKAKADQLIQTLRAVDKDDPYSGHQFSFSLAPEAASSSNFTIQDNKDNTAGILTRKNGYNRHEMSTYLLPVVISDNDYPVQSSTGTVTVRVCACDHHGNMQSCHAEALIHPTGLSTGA
Nature of the experiment: ELISA, antigen coated at 1 ug/mL, 3-fold antibody dilutions, HRP anti-human antibody, OD450. The protocol:
(§1) CDH9 and […] are the most closely related family members to CDH6. Binding of CL069707-H1L1 on human CDH6, CDH9 and CDH10 ECD domains were analyzed by ELISA Binding Assay. Human […], CDH9-ECD-His and CDH10-ECD-His antigens were obtained from Acro Biosystems, Inc. 100 μL of 1 μg/mL of the antigens diluted in PBS were added to 96 well plates and incubated in 4° C. overnight. The plates were washed 3 times with 300 μL of washing buffer. Then 100 μL/well of 1% BSA blocking reagent were added to the plates, and incubated at 37° C. for 1 h then the blocking reagent were discarded. A 3-fold serial dilution of CL069707-H1L1 was added to the plates and then incubated at 37° C. for 1 h. Then the plates were washed 3 times with 300 μL of washing buffer. 100 μL/well of HRP-conjugated anti-Human antibody diluted in 1% BSA were added to the plates and then incubated at 37° C. for 1 h. The plates were washed 3 times with 300 μL of washing buffer. 100 μL/well of TMB substrate were added to the plates and incubated for about 10 min in room temperature. Then the reaction was stopped with 100 μL/well of stopping solution. OD450 was read with a plate reader and the data were processed.
Binding of CL069707-H1L1 on human, cyno monkey, mouse or rat CDH6 antigen were analyzed by ELISA. Human, cyno monkey, mouse and rat CDH6-ECD-His antigens were obtained from Acro Biosystems, Inc. ELISA were done with the same methods as in example 3.1. CL069707-H1L1 binds to human, cyno monkey, mouse and rat CDH6-ECD-His antigens with similar EC50.

The target of experiment [2] is T2, human CDH9-ECD-His (human, UniProt Q9ULB4 54-615).
T2 construct: extracellular domain; Bought protein; also called CDH9-ECD-His protein; not shown: His tag
T2 sequence (looked up): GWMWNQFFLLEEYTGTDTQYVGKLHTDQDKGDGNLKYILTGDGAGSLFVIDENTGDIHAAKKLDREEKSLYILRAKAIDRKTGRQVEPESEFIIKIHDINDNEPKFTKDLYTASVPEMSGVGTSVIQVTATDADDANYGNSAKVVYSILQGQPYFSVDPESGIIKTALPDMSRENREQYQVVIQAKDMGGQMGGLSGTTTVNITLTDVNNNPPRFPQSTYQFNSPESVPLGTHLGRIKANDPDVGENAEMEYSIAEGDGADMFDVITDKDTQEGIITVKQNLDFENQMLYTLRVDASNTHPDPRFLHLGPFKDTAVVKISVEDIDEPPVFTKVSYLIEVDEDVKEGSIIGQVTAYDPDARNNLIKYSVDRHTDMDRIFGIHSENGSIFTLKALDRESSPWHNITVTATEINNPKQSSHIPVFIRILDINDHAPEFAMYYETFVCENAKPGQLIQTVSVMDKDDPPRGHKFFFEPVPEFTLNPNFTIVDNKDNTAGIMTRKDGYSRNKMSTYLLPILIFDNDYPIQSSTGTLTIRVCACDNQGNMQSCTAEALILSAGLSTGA
Nature of the experiment: ELISA, antigen coated at 1 ug/mL, 3-fold dilutions of CL069707-H1L1, HRP anti-human antibody, OD450. The procedure:
as §1

Experiment [3] deals with T3, human CDH10-ECD-His (human, UniProt Q9Y6N8 55-613).
T3 construct: extracellular domain; Bought protein; also called CDH10-ECD-His protein; not shown: His tag
T3 sequence (looked up): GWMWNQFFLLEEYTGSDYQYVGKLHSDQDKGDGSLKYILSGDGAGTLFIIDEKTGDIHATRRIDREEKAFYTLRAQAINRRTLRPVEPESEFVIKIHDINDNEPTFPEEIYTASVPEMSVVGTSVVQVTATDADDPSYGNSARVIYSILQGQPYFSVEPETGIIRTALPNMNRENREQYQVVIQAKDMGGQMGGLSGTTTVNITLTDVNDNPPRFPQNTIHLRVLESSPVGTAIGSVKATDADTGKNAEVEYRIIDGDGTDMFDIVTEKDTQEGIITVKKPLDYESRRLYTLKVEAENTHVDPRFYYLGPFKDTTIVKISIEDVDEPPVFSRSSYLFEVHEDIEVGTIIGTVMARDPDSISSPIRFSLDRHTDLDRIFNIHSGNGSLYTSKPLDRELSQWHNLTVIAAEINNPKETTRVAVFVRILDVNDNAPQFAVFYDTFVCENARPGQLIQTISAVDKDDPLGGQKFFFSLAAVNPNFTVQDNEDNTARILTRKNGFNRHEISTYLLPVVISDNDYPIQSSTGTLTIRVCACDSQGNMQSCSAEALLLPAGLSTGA
The experiment is described as above. The procedure: as §1

B1: CL069707-H1L1 (antibody, human IgG1, kappa, V domains shown)
VH: EVQLVESGGGLVQPGGSLRLSCAASGFTFTTYAMNWVRQAPGKGLEWVARIRIKNNNYATYYADSVTDRFTISRDDSKNSLYLQMNSLKTEDTAVYYCVRPDYGNYGLAYWGQGTLVTVSS
VL: DIQLTQSPSSLSASVGDRVTITCSASSSISSHYLHWYQQKPGKSPKLLIYRSFYLASGVPSRFSGSGSGTDFTLTISSLQPEDFATYYCQQDIVPLTFGQGTKLEIKR
notes: Humanized IgG1/kappa, produced in 293 cells; also called humanized CL069707-H1L1
For B1, in experiment [1], the 50% effective concentration (EC50 (read off the curve)) was approximately 0.1 nM. For the same molecule, the binding result in experiment [2] and in experiment [3] was “no binding (tested: 100 nM)” in each case.
